Measurements reported in patent publication US20260056193A1 (SEER, published 2026).
No end group written: not given here.

What was measured:
Experiment in all cases: LC-MS/MS of proteins captured from pooled plasma by peptide-modified nanoparticles
A0A0C4DGL1 = biological target: T1, A0A0C4DGL1
T1 construct: Protein found in pooled plasma by LC-MS/MS; only the UniProt ID is printed
Description: (§1) Provided herein are proteins that are captured by surfaces modified with peptides described herein. Briefly, surfaces are modified with the 10K-peptide-MaganinII. Pooled plasma samples containing proteins and the modified surfaces are combined and the surfaces are isolated and captured proteins are analyzed by liquid chromatography tandem mass spectrometry. The nanoparticle prepared in Example 5 was used and selected proteins that include those in Table 9. These proteins were captured by the peptide-modified surface, but not surfaces without peptide modification.

A0A075B6K0 = biological target: T2, A0A075B6K0
T2 construct: Protein found in pooled plasma by LC-MS/MS; only the UniProt ID is printed
Description: as §1

F8W7Q4 = biological target: T3, F8W7Q4
T3 construct: Protein found in pooled plasma by LC-MS/MS; only the UniProt ID is printed
Description: as §1

A0A0C4DH33 = biological target: T4, A0A0C4DH33
T4 construct: Protein found in pooled plasma by LC-MS/MS; only the UniProt ID is printed
Description: as §1

E7EQ47 = biological target: T5, E7EQ47
T5 construct: Protein found in pooled plasma by LC-MS/MS; only the UniProt ID is printed
Description: as §1

T2 sequence (A0A075B6K0 20-115): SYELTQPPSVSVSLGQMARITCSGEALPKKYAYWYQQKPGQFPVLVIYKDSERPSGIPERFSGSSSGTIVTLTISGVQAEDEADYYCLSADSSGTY
T4 sequence (A0A0C4DH33 20-117): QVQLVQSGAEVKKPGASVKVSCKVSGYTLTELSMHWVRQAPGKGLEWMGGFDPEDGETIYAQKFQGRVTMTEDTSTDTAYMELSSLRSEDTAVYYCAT

B1: 10K peptide-MaganinII coupled to Surface 428 nanoparticle (Surface 428-MaganinII) (peptide)
peptide: KKKKKKKKKKGIGKFLHSAKKFGKAFVGEIMNS
modifications: not fully specified; also: coupled through Sulfo-SMCC (maleimide) to thiols of Surface 428 nanoparticle, amine carrying SMCC not given here
notes: Many copies of the peptide stand on one nanoparticle; also called SMCC-MagaininII
Median Intensity (A0A0C4DGL1): 3.62
Median Intensity (A0A075B6K0): 3.81
Median Intensity (F8W7Q4): 3.55
Median Intensity (A0A0C4DH33): 3.89
Median Intensity (E7EQ47): 3.5
